According to paper PMC8902617:

Target: filamentous actin (rabbit skeletal muscle actin) (UniProt P68135)
Test: high-speed actin cosedimentation
Conditions: F-actin 0-25 µM; parent: 93.30 ± 3.05

other: % max (maximal binding, % protein in the pellet): 88.6%
Substance: ASAP1 BAR-PH (residues 1-431), His6-tagged, wild type (from UniProt Q9QWY8) K153A; K156A; K159A
